Laboratory results as given in patent US20030108554A1 (published 2003).

Tests used:
GIP130c = target: T1, GIP130c (human, UniProt Q4L180 1-1128); test: yeast two-hybrid and three-hybrid (conclusion)
T1 construct: Full length; tested as GAL4 domain fusion in yeast two-hybrid
T1 sequence: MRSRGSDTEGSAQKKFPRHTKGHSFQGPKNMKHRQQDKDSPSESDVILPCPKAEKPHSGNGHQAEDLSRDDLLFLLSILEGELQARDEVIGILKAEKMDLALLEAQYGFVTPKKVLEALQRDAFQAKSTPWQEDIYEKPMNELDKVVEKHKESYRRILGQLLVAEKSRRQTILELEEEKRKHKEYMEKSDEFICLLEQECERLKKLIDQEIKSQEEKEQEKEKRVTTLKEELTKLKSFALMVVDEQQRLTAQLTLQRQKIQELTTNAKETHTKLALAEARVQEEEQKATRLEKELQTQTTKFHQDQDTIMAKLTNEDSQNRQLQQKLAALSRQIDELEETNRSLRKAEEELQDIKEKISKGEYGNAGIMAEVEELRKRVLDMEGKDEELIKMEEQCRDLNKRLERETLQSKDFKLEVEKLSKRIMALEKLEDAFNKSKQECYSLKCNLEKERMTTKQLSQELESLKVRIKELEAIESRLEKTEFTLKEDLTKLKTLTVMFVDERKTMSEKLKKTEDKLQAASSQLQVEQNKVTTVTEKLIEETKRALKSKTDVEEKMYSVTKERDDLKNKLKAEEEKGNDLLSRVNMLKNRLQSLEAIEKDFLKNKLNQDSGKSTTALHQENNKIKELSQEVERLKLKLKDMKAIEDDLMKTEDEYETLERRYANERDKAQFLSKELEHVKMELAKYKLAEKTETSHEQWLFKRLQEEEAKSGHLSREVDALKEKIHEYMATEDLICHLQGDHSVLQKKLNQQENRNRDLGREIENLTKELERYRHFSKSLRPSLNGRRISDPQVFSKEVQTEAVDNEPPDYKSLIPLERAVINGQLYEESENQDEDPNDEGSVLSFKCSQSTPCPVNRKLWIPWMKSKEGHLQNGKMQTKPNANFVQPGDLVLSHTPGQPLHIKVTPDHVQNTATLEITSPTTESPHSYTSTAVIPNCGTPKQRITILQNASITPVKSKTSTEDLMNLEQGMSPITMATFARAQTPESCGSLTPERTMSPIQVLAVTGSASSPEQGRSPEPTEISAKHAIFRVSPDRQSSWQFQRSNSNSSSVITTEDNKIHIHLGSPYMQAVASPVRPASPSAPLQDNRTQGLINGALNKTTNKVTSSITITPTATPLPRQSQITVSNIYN
Experimental: (§1) Accordingly, we have observed with a yeast three-hybrid system that GPBP expression efficiently impairs both I-20 and GIP90 aggregation, and that I-20 and GIP90 efficiently impair GPBP aggregation.
(§2) Deletion mutants were obtained using specific primers and PCR, followed by cloning of the resulting cDNAs in the pGBT9 and pGAD424 vectors. The assays were performed in SFY526 or HF7c Saccharomyces cerevisiae strains, with pGBT9 as GAL4 binding domain vector and pGAD424 as GAL4 activation domain vector, by the lift colony assay procedure. Briefly, the yeast cells were co-transformed with constructs of both binding domain and activation domain vectors, and the co-transformants were selected in medium deficient in both tryptophan and leucine. After five days of incubation at 30° C. the colonies were tested for the expression of β-galactosidase with X-Gal substrate (0.75 mg/ml). […] When the assays were performed with the HF7c strain, the interactions were assessed by the lift colony assay procedure and by growth in medium deficient in histidine, tryptophan and leucine. For yeast three-hybrid system, we used the pBRIDGE vector, which allows the conditional expression of a third protein apart from the usual GAL4 binding and activation domain-fusion proteins of the two-hybrid system. In this case, the expression of GPBP or I-20 or GIP90 was driven by Met25 promoter, active in absence of methionine. In these experiments, the transformed SFY526 cells were plated in medium deficient in tryptophan, leucine and methionine, and subjected to the colony lift assay after five days at 30° C. In the case of the strain HF7c the colonies grown in the cited plates were streaked on medium with the additional deficiency of histidine.

GIP130b = target: T2, GIP130b (human, UniProt Q4L180 1-1128); test: yeast two-hybrid and three-hybrid (conclusion)
T2 construct: Full length; tested as GAL4 domain fusion in yeast two-hybrid
T2 sequence: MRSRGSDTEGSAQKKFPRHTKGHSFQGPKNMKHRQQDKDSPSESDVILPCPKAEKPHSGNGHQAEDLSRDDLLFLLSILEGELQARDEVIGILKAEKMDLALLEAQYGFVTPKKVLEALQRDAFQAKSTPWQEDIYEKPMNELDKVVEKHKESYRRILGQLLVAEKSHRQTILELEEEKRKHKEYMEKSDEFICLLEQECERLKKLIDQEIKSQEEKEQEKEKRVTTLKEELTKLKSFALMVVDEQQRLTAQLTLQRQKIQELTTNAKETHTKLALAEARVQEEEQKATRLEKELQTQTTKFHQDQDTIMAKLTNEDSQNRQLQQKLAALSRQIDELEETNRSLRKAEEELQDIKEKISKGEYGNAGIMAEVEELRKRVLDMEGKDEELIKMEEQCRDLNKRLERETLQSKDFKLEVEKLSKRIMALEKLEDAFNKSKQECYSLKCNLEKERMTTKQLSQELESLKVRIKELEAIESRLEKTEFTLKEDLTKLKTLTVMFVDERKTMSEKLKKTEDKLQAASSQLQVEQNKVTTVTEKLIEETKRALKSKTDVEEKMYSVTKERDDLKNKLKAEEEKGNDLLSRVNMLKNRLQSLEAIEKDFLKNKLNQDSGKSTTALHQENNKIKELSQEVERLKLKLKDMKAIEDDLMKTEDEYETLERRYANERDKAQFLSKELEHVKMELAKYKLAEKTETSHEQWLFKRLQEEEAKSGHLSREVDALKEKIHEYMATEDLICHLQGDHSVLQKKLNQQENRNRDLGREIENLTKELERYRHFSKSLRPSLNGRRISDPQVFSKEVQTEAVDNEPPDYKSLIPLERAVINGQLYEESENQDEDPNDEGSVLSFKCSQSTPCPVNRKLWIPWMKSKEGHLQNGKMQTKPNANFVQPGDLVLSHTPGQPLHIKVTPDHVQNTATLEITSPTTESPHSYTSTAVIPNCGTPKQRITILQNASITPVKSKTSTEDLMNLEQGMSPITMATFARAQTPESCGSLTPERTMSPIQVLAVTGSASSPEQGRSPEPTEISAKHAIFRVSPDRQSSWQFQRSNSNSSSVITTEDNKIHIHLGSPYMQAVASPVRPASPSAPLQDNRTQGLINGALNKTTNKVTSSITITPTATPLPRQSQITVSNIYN
Experimental: as §1, §2

binding result (GIP130c): binds | binding result (GIP130b): binds
B1: Goodpasture antigen binding protein (GPBP) (enzyme, UniProt Q9Y5P4 1-624, looked up)
chain: MSDNQSWNSSGSEEDPETESGPPVERCGVLSKWTNYIHGWQDRWVVLKNNALSYYKSEDETEYGCRGSICLSKAVITPHDFDECRFDISVNDSVWYLRAQDPDHRQQWIDAIEQHKTESGYGSESSLRRHGSMVSLVSGASGYSATSTSSFKKGHSLREKLAEMETFRDILCRQVDTLQKYFDACADAVSKDELQRDKVVEDDEDDFPTTRSDGDFLHSTNGNKEKLFPHVTPKGINGIDFKGEAITFKATTAGILATLSHCIELMVKREDSWQKRLDKETEKKRRTEEAYKNAMTELKKKSHFGGPDYEEGPNSLINEEEFFDAVEAALDRQDKIEEQSQSEKVRLHWPTSLPSGDAFSSVGTHRFVQKPYSRSSSMSSIDLVSASDDVHRFSSQVEEMVQNHMTYSLQDVGGDANWQLVVEEGEMKVYRREVEENGIVLDPLKATHAVKGVTGHEVCNYFWNVDVRNDWETTIENFHVVETLADNAIIIYQTHKRVWPASQRDVLYLSVIRKIPALTENDPETWIVCNFSVDHDSAPLNNRCVRAKINVAMICQTLVSPPEGNQEISRDNILCKITYVANVNPGGWAPASVLRAVAKREYPKFLKRFTSYVQEKTAGKPILF
notes: Protein kinase; Fusion parts are not written as pieces
